Assay results from US12295987B2, “Method of using a GIP/GLP1 co-agonist for diabetes” (Eli Lilly and Company, priority 2018, dated 2025).
Numbered stars: 1 amine (or outer) side, 2 acyl side, 3 side chain; on linkers, the order of the positions; unused ones are H or OH. Square brackets hold non-standard residues; d marks the D form. Side chains are listed from the residue outwards. Ends that are not written are not given here. * marks the point of attachment. C20 diacid = O=C(O)CCCCCCCCCCCCCCCCCCC(=O)*; γGlu = O=C(O)[C@H](CCC(=O)[*:2])N[*:1]; AEEA = NCCOCCOCC(=O)O; Aib = CC(C)(N)C(=O)O

Target: T1, human gastric inhibitory peptide receptor (hGIPR) (Homo sapiens, UniProt P48546)
T1 construct: expressed in transfected cells; host or cells: HEK293
T1 sequence (P48546 22-466): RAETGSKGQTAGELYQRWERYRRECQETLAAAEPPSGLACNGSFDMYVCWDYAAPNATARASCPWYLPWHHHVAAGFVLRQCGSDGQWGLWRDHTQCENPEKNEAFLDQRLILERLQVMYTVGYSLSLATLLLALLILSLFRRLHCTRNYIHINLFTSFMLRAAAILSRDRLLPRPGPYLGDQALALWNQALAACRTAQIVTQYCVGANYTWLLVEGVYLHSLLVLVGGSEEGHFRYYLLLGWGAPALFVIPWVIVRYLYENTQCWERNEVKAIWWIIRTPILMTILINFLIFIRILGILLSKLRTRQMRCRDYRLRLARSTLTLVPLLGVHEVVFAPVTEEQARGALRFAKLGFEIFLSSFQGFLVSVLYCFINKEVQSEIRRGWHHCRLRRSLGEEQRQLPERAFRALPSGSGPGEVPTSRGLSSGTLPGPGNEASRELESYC
Experiment: cAMP pharmacological functional assay in presence of 0.1% casein, hGIPR
Assay type: cell-based
Conditions: ratio of hGIPR to hGLP1R cAMP EC50 ratios

Row | Substance | [hGIPR/hGLP1R] EC50 Ratio
1 | Y-Aib-EGTFTSDYSILLDKK((2-[2-(2-Amino-ethoxy)-ethoxy]-acetyl)2-(γGlu)-CO—(CH2)18—CO2H)AQ-Aib-AFIEYLIEGG-NH2 (Y[Aib]EGTFTSDYSILLDKK([AEEA-AEEA-γGlu-C20 diacid])AQ[Aib]AFIEYLIEGG-NH2; N-terminus assumed; SMILES CC[C@H](C)[C@H](NC(=O)[C@H](CC(C)C)NC(=O)[C@H](Cc1ccc(O)cc1)NC(=O)[C@H](CCC(=O)O)NC(=O)[C@@H](NC(=O)[C@H](Cc1ccccc1)NC(=O)[C@H](C)NC(=O)C(C)(C)NC(=O)[C@H](CCC(N)=O)NC(=O)[C@H](C)NC(=O)[C@H](CCCCNC(=O)COCCOCCNC(=O)COCCOCCNC(=O)CC[C@H](NC(=O)CCCCCCCCCCCCCCCCCCC(=O)O)C(=O)O)NC(=O)[C@H](CCCCN)NC(=O)[C@H](CC(=O)O)NC(=O)[C@H](CC(C)C)NC(=O)[C@H](CC(C)C)NC(=O)[C@@H](NC(=O)[C@H](CO)NC(=O)[C@H](Cc1ccc(O)cc1)NC(=O)[C@H](CC(=O)O)NC(=O)[C@H](CO)NC(=O)[C@@H](NC(=O)[C@H](Cc1ccccc1)NC(=O)[C@@H](NC(=O)CNC(=O)[C@H](CCC(=O)O)NC(=O)C(C)(C)NC(=O)[C@@H](N)Cc1ccc(O)cc1)[C@@H](C)O)[C@@H](C)O)[C@@H](C)CC)[C@@H](C)CC)C(=O)N[C@@H](CCC(=O)O)C(=O)NCC(=O)NCC(N)=O) [Peptide 51] | 3.97
2 | Y-Aib-EGTFTSDYSILLDKK((2-[2-(2-Amino-ethoxy)-ethoxy]-acetyl)2-(γGlu)-CO—(CH2)18—CO2H)AQ-Aib-AFIEYLIEGGPSSG-NH2 (Y[Aib]EGTFTSDYSILLDKK([AEEA-AEEA-γGlu-C20 diacid])AQ[Aib]AFIEYLIEGGPSSG-NH2; N-terminus assumed; SMILES CC[C@H](C)[C@H](NC(=O)[C@H](CC(C)C)NC(=O)[C@H](Cc1ccc(O)cc1)NC(=O)[C@H](CCC(=O)O)NC(=O)[C@@H](NC(=O)[C@H](Cc1ccccc1)NC(=O)[C@H](C)NC(=O)C(C)(C)NC(=O)[C@H](CCC(N)=O)NC(=O)[C@H](C)NC(=O)[C@H](CCCCNC(=O)COCCOCCNC(=O)COCCOCCNC(=O)CC[C@H](NC(=O)CCCCCCCCCCCCCCCCCCC(=O)O)C(=O)O)NC(=O)[C@H](CCCCN)NC(=O)[C@H](CC(=O)O)NC(=O)[C@H](CC(C)C)NC(=O)[C@H](CC(C)C)NC(=O)[C@@H](NC(=O)[C@H](CO)NC(=O)[C@H](Cc1ccc(O)cc1)NC(=O)[C@H](CC(=O)O)NC(=O)[C@H](CO)NC(=O)[C@@H](NC(=O)[C@H](Cc1ccccc1)NC(=O)[C@@H](NC(=O)CNC(=O)[C@H](CCC(=O)O)NC(=O)C(C)(C)NC(=O)[C@@H](N)Cc1ccc(O)cc1)[C@@H](C)O)[C@@H](C)O)[C@@H](C)CC)[C@@H](C)CC)C(=O)N[C@@H](CCC(=O)O)C(=O)NCC(=O)NCC(=O)N1CCC[C@H]1C(=O)N[C@@H](CO)C(=O)N[C@@H](CO)C(=O)NCC(N)=O) [Peptide 50] | 2.90
